We go through three molecules from US20240287172A1 (SCIRHOM, published 2024).

The assay addresses T1, hiR2-FL-G587N-T7 (human, UniProt Q6PJF5 1-856).
T1 sequence: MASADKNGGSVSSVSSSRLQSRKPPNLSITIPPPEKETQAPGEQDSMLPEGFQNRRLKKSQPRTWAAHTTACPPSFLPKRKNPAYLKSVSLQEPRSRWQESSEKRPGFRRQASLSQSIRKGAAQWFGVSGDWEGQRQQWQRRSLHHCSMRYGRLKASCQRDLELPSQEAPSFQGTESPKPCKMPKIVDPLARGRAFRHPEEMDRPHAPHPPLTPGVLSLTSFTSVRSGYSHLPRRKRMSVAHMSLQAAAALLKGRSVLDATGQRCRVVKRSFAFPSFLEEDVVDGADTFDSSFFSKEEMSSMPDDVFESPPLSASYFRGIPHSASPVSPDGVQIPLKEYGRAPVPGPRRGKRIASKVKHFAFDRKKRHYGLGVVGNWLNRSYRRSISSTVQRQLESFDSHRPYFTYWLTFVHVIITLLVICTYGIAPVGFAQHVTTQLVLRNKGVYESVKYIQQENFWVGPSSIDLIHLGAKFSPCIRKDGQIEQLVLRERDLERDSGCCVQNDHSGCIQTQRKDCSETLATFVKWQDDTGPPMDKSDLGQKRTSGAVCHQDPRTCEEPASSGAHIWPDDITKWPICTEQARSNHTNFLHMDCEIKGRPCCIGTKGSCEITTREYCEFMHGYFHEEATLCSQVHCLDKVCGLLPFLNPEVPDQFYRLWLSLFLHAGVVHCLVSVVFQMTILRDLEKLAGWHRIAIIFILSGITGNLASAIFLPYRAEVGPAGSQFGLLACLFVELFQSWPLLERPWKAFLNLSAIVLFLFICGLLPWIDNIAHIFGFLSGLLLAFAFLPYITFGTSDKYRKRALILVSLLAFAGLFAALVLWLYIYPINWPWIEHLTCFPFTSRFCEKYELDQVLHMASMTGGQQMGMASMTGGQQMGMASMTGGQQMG
Description: FACS, MEF-DKO cells, 3 µg/ml. The source says: In brief, immortalized MEF-DKO hiR2-FL-G563D-T7, MEF-DKO hiR2-FL-A564P-T7, MEF-DKO hiR2-FL-1566E-T7, MEF-DKO hiR2-FL-D569E-T7, MEF-DKO hiR2-FL-E579K-T7, MEF-DKO hiR2-FL-Q580N-T7, MEF-DKO hiR2-FL-A581S-T7, MEF-DKO hiR2-FL-R582A-T7, MEF-DKO hiR2-FL-S583G-T7, MEF-DKO hiR2-FL-G587N-T7, MEF-DKO hiR2-FL-F588H-T7, MEF-DKO hiR2-FL-L589P-T7, MEF-DKO hiR2-FL-E594V-T7, MEF-DKO hiR2-FL-K596T-T7, MEF-DKO hiR2-FL-S607R-T7, MEF-DKO hiR2-FL-T612S-T7, MEF-DKO hiR2-FL-E617D-T7, MEF-DKO hiR2-FL-H620R-T7, MEF-DKO hiR2-FL-L636M-T7, MEF-DKO hiR2-FL-K638D-T7, MEF-DKO hiR2-FL-1771F-T7, MEF-DKO hiR2-FL-1825V-T7, MEF-DKO hiR2-FL-1828V-T7, MEF-DKO hiR2-FL-N829R-T7, MEF-DKO hiR2-FL-W830C-T7, MEF-DKO hiR2-FL-P831E-T7, MEF-DKO hiR2-FL-I833C-T7, MEF-DKO hiR2-FL-H835F-T7, MEF-DKO hiR2-FL-F8391-T7, MEF-DKO hiR2-FL-S843D-T7, MEF-DKO hiR2-FL-Q853A-T7, MEF-DKO hiR2-FL-V854Q-T7 and MEF-DKO hiR2-FL-R844K-T7 cells were harvested with 10 mM EDTA in PBS, washed and resuspended in FACS buffer (PBS, 3% FBS, 0.05% sodium azide), and seeded in Nunc U-bottom 96-well plates (Thermo Fisher Scientific, USA) at approximately 1×10⁵ cells per well. To pellet cells and remove supernatants, the plates were centrifuged at 1,500 rpm and 4° C. for 3 minutes. For primary staining, cells were resuspended in 100 μl per well of either FACS buffer alone (controls) or the purified antibodies 3, 5, 16, 22, 34, 42, 43, 44, 48, and 50 of the invention at 3 μg/ml in FACS buffer and incubated on ice for 1 hour. Afterwards, plates were centrifuged at 1,500 rpm and 4° C. for 3 minutes and washed twice with 200 μl per well of FACS buffer. For secondary staining, cells were spun down and resuspended in 100 μl per well of PE-conjugated goat anti-mouse IgG F(ab′)2 detection fragment (Dianova, Germany) diluted 1:100 in FACS buffer. Protected from light, the cell suspensions were incubated on ice for 1 hour. Plates were then centrifuged at 1,500 rpm and 4° C. for 3 minutes and washed three times with 200 μl per well of FACS buffer. Finally, cells were resuspended in 150 μl per well of FACS buffer and analyzed using a BD Accuri™ C6 Plus flow cytometer (Becton Dickinson, Germany).

Substitutions are numbered along the chain they refer to. Some results are limits rather than exact numbers.

B1: antibody 43 (antibody, V domains shown)
VH: QVALKESGPGILQPSQTLSLTCSFSGFSLSTFGMGVGWIRQSSGKGLEWLANIWWDDDKYYNPALKSRLTISKDASKNQAFLKIANVDTADTATYYCARIGNYGSNYWYFDVWGTGTTVTVSS
VL: QIVLTQSPAIMSASPGERVTMTCSANSRISYMYWYQQKPGSSPRLLIYDTSNLASGVPVRFSGSGSGTSYSLTISRMEAEDAATYNCQQWSSYPLTFGAGTKLELK
notes: mouse IgG, kappa light chain; also called clone #43; purified antibody 43
In the case of B1, the “loss of binding vs wild type” value is at least 30%.

B2: antibody 48 (antibody, V domains shown)
VH: QVQLQQSGTELVRPGTSVKVSCKASGYAFTNYLIEWVKQRPGQGLEWIGVINPGSGFTKYNEKFKGKATLTADKSSSTVYMHLSSLTSEDSAVYFCARGLYRAMDYWGQGTSVTVSS
VL: DIQMTQSPASQSASLGESVTITCLASQTIATWLAWYQQKPGKSPQLLIYGATTLADGVPSRFSGGGSGTKFSFKISSLQAEDFVSYYCQQLYSTPYTFGGGTKLEIK
notes: mouse IgG, kappa light chain; also called clone #48; purified antibody 48
B2: the “loss of binding vs wild type” value was at least 60%.

B3: antibody 50 (antibody, V domains shown)
VH: B2 VH with T9A, T16A, T30S, V79A, H82Q
VL: B2 VL with A30G, G50A, T52A, T53S, S85N, L91I
notes: mouse IgG, kappa light chain; also called clone #50; purified antibody 50
With B3, the “loss of binding vs wild type” value is at least 60%.
